The values that follow come from patent US20240349732A1 (IMPETUS AGRICULTURE, published 2024).

Substitutions are numbered along the chain they refer to.

T1: tagless FAW Cadherin antigen (Spodoptera frugiperda)
T1 construct: the batch used for panning is called tagless; also called Sp.f Cadherin
T1 chain: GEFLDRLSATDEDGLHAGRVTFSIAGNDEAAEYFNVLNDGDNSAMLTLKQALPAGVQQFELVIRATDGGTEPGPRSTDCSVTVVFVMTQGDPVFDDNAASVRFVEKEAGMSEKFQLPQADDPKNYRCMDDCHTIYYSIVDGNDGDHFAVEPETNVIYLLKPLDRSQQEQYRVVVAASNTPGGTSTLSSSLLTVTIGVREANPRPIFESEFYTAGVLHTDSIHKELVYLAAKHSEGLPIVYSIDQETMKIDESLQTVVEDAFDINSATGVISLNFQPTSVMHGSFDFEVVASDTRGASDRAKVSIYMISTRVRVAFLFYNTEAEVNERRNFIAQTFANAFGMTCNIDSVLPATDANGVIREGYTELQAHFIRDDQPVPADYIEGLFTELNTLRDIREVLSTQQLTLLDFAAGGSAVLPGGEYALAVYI

T2: 57NAAT1like (second extracellular loop of Spodoptera frugiperda sodium-dependent nutrient amino acid … (Spodoptera frugiperda))
T2 construct: 57 aa antigen; also called NAAT antigen
T2 chain: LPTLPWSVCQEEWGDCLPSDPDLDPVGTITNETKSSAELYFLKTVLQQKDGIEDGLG

B1: Cadherin monospecific nanobody #46 (VHH)
VHH: QVQLQESGGGSVQAGGSLKLSCAASGTESIFIVMGWYRQAPGKERELVAAMSFGGGTNVTDGVRGRFTISRDFDKNTVDLQMNNLKTEDTAVYYCNAVQWGPRDYWGQGTQVTVSS
notes: Llama VHH; also called Cad46
B2: Cadherin monospecific nanobody #50 (VHH)
VHH: QVQLQESGGGLVQAGASLRLSCAASRRTGSSLTMGWFRQAPGKEREFVAAISRSGIRTYYADFVKGRFTISRDNGENTLYLQINSLKPEDTAVYYCAASSNPGYYRTAPNQYNFWGPGTQVTVSS
notes: Llama VHH; also called Cad50
B3: Cadherin monospecific nanobody #2 (VHH)
VHH: QVQLQESGGGLVQAGASLRLSCAASRRTGSSLTMGWFRQAPGKEREFVAAISRSGIRTYYADFVKGRFTISRDNAKNTLYLQMNSLKPEDTAVYYCAANDKTYGSGLDVYTRRQNYYYWGPGTQVTVSS
notes: Llama VHH; also called Cad2
B4: Cadherin monospecific nanobody #48 (VHH)
VHH: B3 VHH with K43R, N115D
notes: Llama VHH; also called Cad48
B5: Cadherin monospecific nanobody #43 (VHH)
VHH: B3 VHH with V12A, N115D
notes: Llama VHH; also called Cad43
B6: NAAT monospecific nanobody #5 (VHH)
VHH: QVQLQESGGGLVQPGGSLRLACVLSGGPSSSYGVGWFRQRSGTEREFVAAISGSGRTIHYVDDVKGRFAISRDSAKNAVDLQMNNLKPEDTAVYYCAALALVTTHPTSNVGEWDYWGQGTQVTVSS
notes: Llama VHH; also called NAAT5
B7: NAAT monospecific nanobody #1 (VHH)
VHH: QVQLQESGGGLVQAGGSLRLSCAASGRTFSRYAMGWFRQALGKEREFVAGINWSGSMTYYADSVKGRFTISRDNAKNMLYLQMNSLKSEDTAVYYCAGVTVVGGAPAFDYWGQGTQVTVSS
notes: Llama VHH; also called NAAT1
B8: NAAT monospecific nanobody #2 (VHH)
VHH: QVQLQESGGGVVQTGGSLTLSCKASRRTSGFAMAWFRQAPGMEREFVAGIGRTGDNIHYLDSVKGRFTISRDNTKNTLSLQMNSLRPGDTAVYYCAADVTKSGFIYWGQGTQVTVSS
notes: Llama VHH; also called NAAT2
B9: NAAT monospecific nanobody #6 (VHH)
VHH: QVQLQESGGGVVQTGGSLTLSCKASRRTSGFAMAWFRQAPGMEREFVAGIGRTGDNIHYLDSVKGRFTISRDNTKNTLSLQMNSLKSEDTAVYYCAKVVVVAGSPSFDAWGQGTQVTVSS
notes: Llama VHH; also called NAAT6
B10: NAAT monospecific nanobody #10 (VHH)
VHH: QVQLQESGGGLVQAGGSLTLSCAFSGRTFTHYAMAWFRQAPGKERKFVAGVTRSGPNTYYDDSVQGRFTISRDNAKNTVYLHMNSLKPEDTAVYYCAANSGVVSGYDYWGQGTQVTVSS
notes: Llama VHH; also called NAAT10
B11: NAAT monospecific nanobody #29 (VHH)
VHH: QVQLQESGGGVVQTGGSLTLSCKASRRTSGFAMAWFRQAPGMEREFVAGIGRTGDNIHYLDSVKGRFTISRDNTKNTLSLQMNNLKPEDTAVYYCLRTMGGTWSEKGQGTQVTVSS
notes: Llama VHH; also called NAAT29

For the first experiment, the target named is T1, tagless FAW Cadherin antigen. Description: screen of colonies after 3 rounds of phage panning on solid-phase coated tagless FAW Cadherin antigen.
Take B1: the binding result is on record as “binds”. The same measure, in the same setting: the result for B2 reads “binds”; that for B3, “binds”; that for B4, “binds”.

Regarding B5, the binding result is listed as “binds”.

The target in the next experiment is T2, 57NAAT1like (second extracellular loop …). Description: ELISA of periplasmic extracts on passively coated non-biotinylated 57NAAT1like.
Take B6: the binding result was “binds”.

With B7, the binding result was “binds”.

On to B8, for which the binding result was “binds”. Regarding B9, the binding result is “binds”. Same read-out and setting: the result for B10 reads “binds”.

Regarding B11, the binding result is recorded as “binds”.
